Laboratory results from article PMC5125937 (Molecules and Cells, 2016).

T1: EcZapD H140R (residues 1-247) (E. coli, UniProt P36680 1-247, H140R)
T1 sequence: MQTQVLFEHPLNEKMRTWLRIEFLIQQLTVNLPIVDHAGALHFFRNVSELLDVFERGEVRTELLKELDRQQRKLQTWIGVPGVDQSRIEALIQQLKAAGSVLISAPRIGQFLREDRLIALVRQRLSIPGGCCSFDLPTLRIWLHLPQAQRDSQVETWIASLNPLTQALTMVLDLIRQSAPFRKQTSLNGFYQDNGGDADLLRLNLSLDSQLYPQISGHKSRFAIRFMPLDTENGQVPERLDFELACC

T2: EcZapD E22R (residues 1-247) (E. coli, UniProt P36680 1-247, E22R)
T2 sequence: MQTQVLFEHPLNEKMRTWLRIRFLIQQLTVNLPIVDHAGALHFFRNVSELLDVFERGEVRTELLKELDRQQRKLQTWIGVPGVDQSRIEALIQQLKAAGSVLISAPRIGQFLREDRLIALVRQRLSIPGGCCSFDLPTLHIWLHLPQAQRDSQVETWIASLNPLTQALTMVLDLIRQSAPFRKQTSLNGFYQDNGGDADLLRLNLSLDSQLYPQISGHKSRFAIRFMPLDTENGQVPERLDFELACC

B1: EcZapD WT (residues 1-247) (natural protein)
chain: MQTQVLFEHPLNEKMRTWLRIEFLIQQLTVNLPIVDHAGALHFFRNVSELLDVFERGEVRTELLKELDRQQRKLQTWIGVPGVDQSRIEALIQQLKAAGSVLISAPRIGQFLREDRLIALVRQRLSIPGGCCSFDLPTLHIWLHLPQAQRDSQVETWIASLNPLTQALTMVLDLIRQSAPFRKQTSLNGFYQDNGGDADLLRLNLSLDSQLYPQISGHKSRFAIRFMPLDTENGQVPERLDFELACC

Key:
SEC-MALS = molecular target: the molecule itself; assay: SEC-MALS
[1] = molecular target: B1; assay: BLI
[2] = molecular target: T1, EcZapD H140R (residues 1-247); assay: BLI
[3] = molecular target: T2, EcZapD E22R (residues 1-247); assay: BLI

Row | Kd [1] [µM] | Kd [2] [µM] | Kd [3] [µM] | Binder | stoichiometry N (SEC-MALS)
1 |  |  |  | B1 | 2
2 | 4.7 ± 0.5 |  |  | KEPDYLDIPAFLRDQAD [GST-FtsZ_(367-383) K380D] | 
3 | 4.4 ± 0.5 | 16 ± 1 | 68 ± 2.2 | KEPDYLDIPAFLRKQAD [GST-FtsZ_(367-383)] | 
4 | > 2000 |  |  | KEPDYLDIPAFLR [GST-FtsZ_(367-379)] | 
